Measured values from patent US20230212533A1, “PRODUCTS AND METHODS FOR THE TREATMENT OF NICOTINE DEPENDENCE” (THE REGENTS OF THE UNIVERSITY OF MICHIGAN, priority 2020, published 2023).

Biological target: CycN cytochrome c protein (Pseudomonas putida S16) (Pseudomonas putida S16)
Experiment: anaerobic stopped-flow spectrophotometry at 542 nm, 4 °C; NicA2-Flred mixed with excess CycNox; linear fit of first-phase kobs against CycNox concentration, said to report on the bimolecular association of the two proteins

B1: NicA2 nicotine oxidoreductase (wild-type, Pseudomonas putida S16) (enzyme)
chain: TQKTNRASTVKGGFDYDVVVVGGGFAGATAARECGLQGYRTLLLEARSRLGGRTFTSRFAGQEIEFGGAWVHWLQPHVWAEMQRYGLGVVEDPLTNLDKTLIMYNDGSVESISPDEFGKNIRIAFEKLCHDAWEVFPRPHEPMFTERARELDKSSVLDRIKTLGLSRLQQAQINSYMALYAGETTDKFGLPGVLKLFACGGWNYDAFMDTETHYRIQGGTIGLINAMLTDSGAEVRMSVPVTAVEQVNGGVKIKTDDDEIITAGVVVMTVPLNTYKHIGFTPALSKGKQRFIKEGQLSKGAKLYVHVKQNLGRVFAFADEQQPLNWVQTHDYSDELGTILSITIARKETIDVNDRDAVTREVQKMFPGVEVLGTAAYDWTADPFSLGAWAAYGVGQLSRLKDLQAAEGRILFAGAETSNGWHANIDGAVESGLRAGREVKQLLS
  kon: 1.3e+06 M⁻¹ s⁻¹
